Measured values: patent publication US7135326B2, “UDP-glucosyltransferases” (E. I. du Pont de Nemours and Company, priority 2002, dated 2006)

Columns and labels:
[1] = system: Grape GT; assay: Substrate specificity of the purified recombinant Grape GT, HPLC analysis of glucose ester formation; type: biochemical, Vitis sp.; details: relative to pHBA = 100, 10 mM test substrate, 0.0467 μM purified Grape GT, 15 min, 25° C.
Method: To rule out the possibility that the Grape GT can also attach glucose to the hydroxyl group of pHBA, the products of the in vitro enzyme reaction were directly analyzed by reverse phase HPLC. […] Following a 1-min incubation period at 25° C., the reactions were terminated by the addition of an equal volume of 0.2 N HCl. […] The column was developed at 1 mL/min with a linear gradient of 10–50% Buffer B that was generated over a 20-min period, and absorbance was monitored at 254 nm. […] To test this hypothesis, Applicants' decided to examine the substrate specificity of the Grape GT in greater detail. […] Following a 15-min incubation period at 25° C., the reactions were quenched with an equal volume of 0.3 M HCl and the entire reaction mixture was analyzed by HPLC as described above in Example 6. The products of the various reactions were identified using authentic chemical standards. The retention times and extinction coefficients of these compounds were determined using the same column conditions. […] Regardless of substrate, the purified recombinant Grape GT only catalyzed the formation of glucose esters, which in all cases co-migrated precisely with the authentic compounds. […] Since the glucose ester of the latter compound is the precursor for the synthesis of simple and complex tannins that are extremely abundant in grapes, it is possible that gallic acid is a physiological substrate of the Grape GT. The data shown in Table 3 make it clear that although the Grape GT glucosylated mHBA (3-hydroxybenzoic […]) at a reasonable rate, product formation with oHBA (2-hydroxybenzoic acid) was not observed.

[2] = target: CPL (Escherichia coli, UniProt P26602); assay: Product inhibition of CPL by pHBA; type: biochemical, E. coli; details: read-out: inhibitory constant (Ki)
CPL, sequence (P26602 whole entry): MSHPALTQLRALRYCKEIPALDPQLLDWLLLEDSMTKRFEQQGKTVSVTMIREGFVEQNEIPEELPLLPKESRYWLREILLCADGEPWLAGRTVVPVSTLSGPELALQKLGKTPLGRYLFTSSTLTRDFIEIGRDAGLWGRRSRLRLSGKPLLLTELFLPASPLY
Method: Although double transformant line 39 and the CPL control plant had essentially the same amount of CPL enzyme activity as measured in leaf extracts (Table 8), this doesn't necessarily reflect the situation in vivo. CPL enzyme assays are conducted under optimal conditions, and measure initial velocities in the presence of excess substrate and absence of products. Thus, the initial rate of product formation in the in vitro assay is strictly proportional to the amount of enzyme that is added to the cuvette. Consequently, if two plants had identical levels of CPL gene expression, leaf extracts prepared from these plants would theoretically yield the same initial velocity in the in vitro assay. […] Applicants confirmed these observations.

[3] = Acid and base hydrolysis of pHBA glucose conjugates, HPLC; type: physicochemical; details: 48 h at 60° C. with NaOH or HCL, 0.19 mM
Method: The initial concentration of both compounds was 0.19 mM and the total reaction volume was […]. Reactions were conducted in tightly sealed polypropylene tubes to prevent evaporative loss. […] Prior to HPLC analysis, the acid hydrolyzed samples were diluted with an equal volume of NaOH that contained a 0.2 mM excess of NaOH relative to the original concentration of HCL. The base hydrolyzed samples were analyzed directly. Chemically synthesized pHBA phenolic and ester glucoside standards and free pHBA were used to calibrate the HPLC runs for retention times, and extinction coefficients for all three compounds were accurately determined under the conditions employed. Peak areas were integrated using the software package provided with the Hewlett Packard Chemstation, and values obtained with known amounts of the chemical standards were used to quantitate compounds of interest in the acid and base hydrolyzed samples.

[4] = system: Arabidopsis thaliana glucosyltransferase UGT84A2; details: 20° C., pH 6; calculated from Vmax of Lim et al. 2001; cited from earlier work
[5] = system: Arabidopsis thaliana glucosyltransferase UGT84A3 (GT 4, SEQ ID NO:12); details: 20° C., pH 6; calculated from Vmax of Lim et al. 2001; cited from earlier work
[6] = system: Arabidopsis thaliana glucosyltransferase UGT84A1 (84A1, GT 3, SEQ ID NO:8); details: 20° C., pH 6; calculated from Vmax of Lim et al. 2001; cited from earlier work
[7] = Continuous spectrophotometric UDP-glucosyltransferase assay, formation of pHBA glucose ester at 304 nm, E. coli cell-free extracts; type: biochemical; details: crude extract, 10 mM UDP-glucose, pH 7.3, 25° C.
Method: (§1) For protein production, the resulting recombinant strains were grown at 22° C. in 50 mL of LB media that contained kanamycin (50 μg/mL). At an A600 nm of ˜0.6, isopropyl-1-thio-β-D-galactopyranoside was added to a final concentration of 0.2 mM. Following a 22-h induction period at the same temperature, the cells were harvested by centrifugation and stored at −80° C. for subsequent manipulation as described below.
(§2) The frozen cell pellets were resuspended in 1.0 mL of a solution containing 100 mM Tris-HCl (pH 7.7), 5 mM MgSO4, 1 mM dithiothreitol, 0.03 mg/mL DNAse I, 0.5 mM phenylmethanesulfonyl fluoride, and passed once through a French pressure cell at 20,000 psi. Debris was removed by centrifugation (43,000×g, 60 min), and the resulting cell-free extracts, containing ˜15 mg of protein per mL, were supplemented with 5% glycerol and stored at −80° C. for subsequent measurements of enzyme activities. Protein concentrations were determined by the Bradford Method using bovine serum albumin as a standard.

[8] = Continuous spectrophotometric UDP-glucosyltransferase assay, formation of glucose ester of sinapic acid at 368 nm, E. coli cell-free extracts; type: biochemical; details: crude extract, 10 mM UDP-glucose, pH 7.3, 25° C.
Method: as §1, §2
(§3) The second assay is based on the increase in absorbance at 368 nm that accompanies the formation of the glucose ester of sinapic acid. The experimental conditions were the same as those described above, but the test substrate was sinapic acid and product formation was calculated using an extinction coefficient of 5,570 M^−1 that was obtained with the authentic chemically synthesized compound under identical conditions.

[9] = Ratio of enzyme activity with pHBA versus sinapic acid (spectrophotometric assays); type: biochemical; details: for pHBA/SA ratio of enzyme activity: crude extract
Method: as §3

[10] = Reverse phase HPLC analysis of the products of the in vitro enzyme reaction with pHBA; type: biochemical
Method: To rule out the possibility that the Grape GT can also attach glucose to the hydroxyl group of pHBA, the products of the in vitro enzyme reaction were directly analyzed by reverse phase HPLC. […] Following a 1-min incubation period at 25° C., the reactions were terminated by the addition of an equal volume of 0.2 N HCl. The samples were briefly centrifuged, and 20-μL aliquots of the resulting supernatants were injected onto a Vydac 218TP54 Protein and Peptide C18 column, (Grace Vydac, Hesperia, Calif.) pre-equilibrated with 90% Buffer A (0.1% formic acid in water) and 10% Buffer B (methanol). The column was developed at 1 mL/min with a linear gradient of 10–50% Buffer B that was generated over a 20-min period, and absorbance was monitored at 254 nm.
In light of these observations, it was extremely important to analyze the reaction products of the Grape GT over a broader range of pH that encompasses physiological conditions. […] In addition, the reaction mixtures also contained 100 mM potassium phosphate buffer (pH 6.0, 7.0 or 8.0), 5 mM MgCl2, 5 mM UDP-glucose, 2 mM dithiothreitol, and 0.47 μM of the purified recombinant Grape GT. After a 15-min incubation period, the reactions were terminated by the addition of an equal volume of 0.3 M HCl and analyzed by reverse phase HPLC as described above. […]

[11] = Freeze/thaw stability of the purified recombinant Grape GT; type: physicochemical; details: diluted in buffer with 6% glycerol and 5 mM dithiothreitol, kept on ice, frozen to −80° C.
Method: For all the enzyme assays described below, frozen aliquots of the purified Grape GT were rapidly thawed and diluted to the desired concentration with ice-cold buffer containing 50 mM Tris-HCl (pH 7.6), 1 mM EDTA, 10 mM Na2SO3, 300 mM NaCl, 6% glycerol and 5 mM dithiothreitol.

For `O=C(O)c1ccc(O)cc1` [PHBA, p-Hydroxybenzoic acid], the “Relative Rate of product formation” value [1] was 100 and the Ki [2] was about 2000 nM.

With `O=C(O)C=Cc1ccc(O)cc1` [PHCA, 4-hydroxycinnamic acid] the “Relative Rate of product formation” value [1] was 56.

In the case of `O=C(O)c1cc(O)c(O)c(O)c1` [Gallic acid, 3,4,5-trihydoxybenzoic acid], the “Relative Rate of product formation” value [1] is reported as 64.

In the case of `O=C(O[C@@H]1O[C@H](CO)[C@@H](O)[C@H](O)[C@H]1O)c1ccc(O)cc1` [pHBA glucose ester], the “susceptibility to acid and base hydrolysis” value [3] is reported as “far more susceptible to acid and base hydrolysis than the pHBA phenolic glucoside”.

For `COc1cc(/C=C/C(=O)O)cc(OC)c1O` [Sinapic acid], the “Relative Rate of product formation” value [1] was 10.

With `O=C(O)/C=C/c1ccc(O)c(O)c1` [Caffeic acid, caffeic acid] the “Relative Rate of product formation” value [1] was 25.

For `COc1cc(/C=C/C(=O)O)cc(OC)c1O` [sinapic acid, Sinapic acid], the “turnover number with sinapic acid” value [4] is given as about 0.72 s⁻¹.

For `O=C(O)/C=C/c1ccccc1` [cinnamic acid], the “turnover number with cinnamic acid” value [5] is listed as about 0.9 s⁻¹.

With `COc1cc(/C=C/C(=O)O)ccc1O` [Ferrulic acid, ferrulic acid] the “Relative Rate of product formation” value [1] was 16.

For `O=C(O)c1ccccc1O` [OHBA, o-Hydroxybenzoic acid], the “Relative Rate of product formation” value [1] was 0.

For `O=C(O)/C=C/c1ccc(O)cc1` [p-hydroxycinnamic acid], the “turnover number with p-hydroxycinnamic acid” value [6] is listed as about 0.70 s⁻¹.

B1: Grape GT: Vitis sp. UDP-glucosyltransferase, SEQ ID NO:18, recombinant from E. coli (protein)
chain: MGSESKLVHVFLVSFPGQGHVNPLLRLGKRLASKGLLVTFSTPESIGKQMRKASNITDQPTPVGEGLIRFEFFEDEWDENEPKRQDLDLYLPQLELVGKKVLPQMIKKHAEQDRPVSCLINNPFIPWVSDVAADLGIPSAMLWVQSCACFSTYYHYYHGLVPFPSEAEPEIDVQLPCMPLLKYDEVASFLYPTTPYPFLRRAILGQYRNLDKPFCILMDTFQELEPEVIEYMSKICPIKPVGPLYKNPKVPNAAVRGDFMKADDCIEWLDSKPPSSIVYVSFGSVVYLKQDQVDEIAYGLLNSGLQFLWVMKPPHKDAGLELLVLPEGFLEKAGDKGKVVQWSPQEQVLAHPSVACFVTHCGWNSSMEALSSGMPVVAFPQWGDQVTDAKYLVDEFKIGVRMCRGEAENKLITRDEVEKCLIEATTGPKAAELKQNAMKWKKAAEQAVAEGGSSERNLQGFVDEVRRRSIEIIYKTKI
modifications: Vitis ssp.
With B1 the “initial rate of product formation, 1 mM pHBA” value ([7]; 1 mM pHBA) was 96.4 μM per min, the “initial rate of product formation, 5 mM pHBA” value ([7]; 5 mM pHBA) was 177 μM per min and the “initial rate of product formation, 10 mM pHBA” value ([7]; 10 mM pHBA) was 181 μM per min. For the same molecule, the “initial rate of product formation, 1 mM SA” value ([8]; 1 mM sinapic acid) was 22.8 μM per min, the “initial rate of product formation, 5 mM SA” value ([8]; 5 mM sinapic acid) was 16.6 μM per min and the “initial rate of product formation, 10 mM SA” value ([8]; 10 mM sinapic acid) was 4.8 μM per min. For the same molecule, the “substrate preference for pHBA over sinapic acid” value ([9]; 10 mM substrate concentration) was 37.7 fold, the “rate of pHBA glucosylation relative to sinapic acid” value ([9]; 10 mM substrate, cell-free extract) was about 40 times and the “Ratio of Activity pHBA/SA” value ([9]; Table 4, cell-free extracts, 10 mM pHBA or sinapic acid, 25° C.) was 37.7. For the same molecule, the “pHBA/SA ratio of enzyme activity” value ([9]; 1 mM substrate) was 4.23, the “pHBA/SA ratio of enzyme activity” value ([9]; 5 mM substrate) was 10.7 and the “pHBA/SA ratio of enzyme activity” value ([9]; 10 mM substrate) was 37.7. For the same molecule, the “glucose conjugates detected by HPLC” value ([10]; pH 6.0, 7.0 or 8.0, 0.15 mM or 5 mM pHBA, 0.47 μM purified Grape GT, 15 min) was “the only glucose conjugate that was detected in the in vitro assay was the pHBA glucose ester”, the “glucosylated products detected by HPLC” value ([10]; purified enzyme, pH 7.3, 0.3 mM pHBA, 5 mM UDP-glucose, 25° C. (Example 6)) was “the only glucosylated product that was detected in the fractionated enzyme reaction mixture was the pHBA glucose ester” and the stability to freeze/thaw [11] was “stable to multiple cycles of freeze/thaw without significant loss of enzyme activity”.
